The target in assay [1] is HLA-B*07:02. The experiment in a line: IEDB peptide-MHC binding, purified MHC/competitive/radioactivity; filed as Kd, often an IC50 or EC50 that approximates it; ≥ and ≤ were set here for values at or beyond the usual limits of such assays.
In assay [2] the target is HLA-B*18:01. The assay is described as above.
In assay [3] the target is HLA-B*45:01. Described as above.
Assay [4] addresses HLA-B*44:03. Described as above.
Assay [5] concerns the target HLA-B*40:01. The assay is described as above.
Assay [6] concerns the target HLA-B*44:02. Described as above.
Assay [7] concerns the target HLA-B*40:02. The description is as above.
In assay [8] the target is HLA-A*24:02. Briefly: IEDB peptide-MHC binding, purified MHC/competitive/fluorescence; ≥ and ≤ were set here for values at or beyond the usual limits of such assays.
Assay [9] has as its target HLA-A*02:01. Described as above.
In assay [10] the target is HLA-A*26:01. The experiment in a line: IEDB peptide-MHC binding, purified MHC/competitive/radioactivity; filed as Kd, often an IC50 or EC50 that approximates it; ≥ and ≤ were set here for values at or beyond the usual limits of such assays. The following applies: source organism: Dengue virus 3 Martinique/1243/1999.
The target of assay [11] is HLA-B*35:01. The assay is described as above.
For assay [12], the target named is HLA-B*53:01. Described as above.
The target in assay [13] is HLA-A*30:02. The assay is described as above. The note with it: source organism: Dengue virus 1 Brazil/97-11/1997.
The target in assay [14] is HLA-B*51:01. The description is as above.
Assay [15] deals with HLA-B*08:01. The description is as above. The following applies: source organism: Dengue virus 2 Jamaica/1409/1983.
For assay [16], the target named is HLA-A*26:01. The experiment in a line: IEDB peptide-MHC binding, purified MHC/direct/fluorescence; filed as Kd, often an IC50 or EC50 that approximates it; ≥ and ≤ were set here for values at or beyond the usual limits of such assays. The following applies: source organism: Cryptosporidium parvum.
Assay [17] deals with HLA-A*11:01. The description is as above. The note with it: source organism: Cryptosporidium parvum.
The target in assay [18] is HLA-A*01:01. The assay is described as above. The note with it: source organism: Cryptosporidium parvum.
Assay [19] deals with HLA-A*69:01. Described as above. The following applies: source organism: Cryptosporidium parvum.
For assay [20], the target named is HLA-B*15:01. The description is as above. The note with it: source organism: Cryptosporidium parvum.
Assay [21] addresses HLA-A*02:01. Described as above. The following applies: source organism: Cryptosporidium parvum.
Assay [22] deals with HLA-B*08:01. The assay is described as above. The following applies: source organism: Cryptosporidium parvum.
Assay [23] has as its target HLA-A*03:01. Described as above. The following applies: source organism: Cryptosporidium parvum.
Assay [24] addresses HLA-A*31:01. The assay is described as above. The following applies: source organism: Cryptosporidium parvum.
The target in assay [25] is HLA-B*40:01. The description is as above. The following applies: source organism: Cryptosporidium parvum.
In assay [26] the target is HLA-B*27:05. The description is as above. The following applies: source organism: Cryptosporidium parvum.
Assay [27] deals with HLA-B*44:02. The description is as above. The note with it: source organism: Cryptosporidium parvum.
Assay [28] concerns the target HLA-B*58:01. Described as above. The note with it: source organism: Cryptosporidium parvum.
Assay [29] concerns the target HLA-B*07:02. The description is as above. The following applies: source organism: Cryptosporidium parvum.
The mark [30] stands for this setting: source organism: Dengue virus 4 Philippines/H241/1956.
The mark [31] stands for this setting: source organism: SARS coronavirus Tor2.
The mark [32] stands for this setting: source organism: Dengue virus 1 Brazil/97-11/1997.
Where [33] appears, read: source organism: Lymphocytic choriomeningitis virus (strain Armstrong).
[34] abbreviates: source organism: Vaccinia virus.
[35] abbreviates: source organism: Dengue virus 3 Martinique/1243/1999.
Where [36] appears, read: source organism: Zaire ebolavirus.
Where [37] appears, read: source organism: Sudan ebolavirus.
Where [38] appears, read: source organism: Vaccinia virus Copenhagen.
Setting [39] is: source organism: Mammarenavirus machupoense.
[40] abbreviates: source organism: Dengue virus 2 Jamaica/1409/1983.
Setting [41] is: source organism: Vaccinia virus WR.

The term Kd denotes the concentration at which binding is half-saturated. In general, IC50 refers to the concentration that inhibits the measured activity by half. Read a high IC50 as weaker potency in that assay.

For the sequence TPQDNQLIYV, in assay [1] (setting [30]), the Kd worked out at 7.76 µM.
For FERDISNVPF, the Kd was 0.032 µM in assay [2] (setting [31]); 6.4 µM in assay [3] (setting [31]); 0.629 µM in assay [4] (setting [31]); 0.0203 µM in assay [5] (setting [31]); 0.578 µM in [6] (setting [31]); 1.95 µM in assay [7] (setting [31]).
Take KPSGSASSM: the Kd in assay [1] (setting [32]) is 0.00488 µM.
Take FENAILSMTI: the Kd in [2] (setting [33]) worked out at 0.126 µM; in [3] (setting [33]), 3.02 µM; in [4] (setting [33]), 0.388 µM; in assay [5] (setting [33]), 1.45 µM; in assay [6] (setting [33]), 0.237 µM; in assay [7] (setting [33]), 0.00631 µM.
With MELPTGVHA, the Kd in assay [2] (setting [31]) is 18 µM; in [3] (setting [31]) it was 0.0789 µM; in assay [4] (setting [31]), 13.8 µM; in [5] (setting [31]), at least 24.9 µM; in [6] (setting [31]), 7.8 µM; in assay [7] (setting [31]), 2.74 µM.
As for FENAILSMT, the Kd was found to be 3.3 µM in assay [2] (setting [33]); 1.82 µM in [3] (setting [33]); 6.37 µM in [4] (setting [33]); 18.4 µM in [5] (setting [33]); 6.48 µM in assay [6] (setting [33]); 0.0323 µM in assay [7] (setting [33]).
Regarding RLEEEINNQ, the IC50 in [8] (setting [34]) is 32.6 µM; in assay [9] (setting [34]) it was at least 195 µM.
As for EPIEGKVVQY, the Kd in assay [10] was found to be 2.73 µM; in [11] (setting [35]) it was 0.491 µM; in assay [12] (setting [35]), 5.03 µM.
Regarding IPATLFVWY, the Kd was 0.00339 µM in assay [11] (setting [32]) and 0.01 µM in assay [12] (setting [32]).
For STLAGVNVG, in [9] (setting [36]), the IC50 was at least 105 µM.
In the case of LITSTVTGI, the IC50 in assay [8] (setting [37]) is 17.9 µM; in [9] (setting [37]) it was 1.64 µM.
As to MPGTFQTTTG, the Kd in [11] (setting [35]) was found to be 0.157 µM; in assay [12] (setting [35]), 0.427 µM.
As to SEFSSLPSYA, the Kd worked out at 1.06 µM in [2] (setting [31]); 0.0253 µM in assay [3] (setting [31]); 0.0131 µM in [4] (setting [31]); 0.431 µM in assay [5] (setting [31]); 0.343 µM in assay [6] (setting [31]); 0.0224 µM in assay [7] (setting [31]).
The sequence YQLLEAVYG displayed an IC50 in [9] (setting [38]) of 31.1 µM.
Regarding YKVASEGFQY, the figures for the Kd in assay [13] and in [11] (setting [32]) were 0.135 µM and 3.92 µM, respectively.
In the case of SPARLASAI, the Kd in assay [14] (setting [30]) came to 0.532 µM; in [1] (setting [30]) it was 0.00268 µM.
With NEKVAGFAKF, the Kd in assay [2] (setting [31]) is 1.56 µM; in [3] (setting [31]), 18.8 µM; in assay [4] (setting [31]), 0.527 µM; in assay [5] (setting [31]) it was at least 53.7 µM; in [6] (setting [31]), 0.0379 µM; in [7] (setting [31]), at least 70.8 µM.
On to SEAFLIGANY, for which the Kd in assay [2] (setting [31]) was 0.00442 µM; in assay [3] (setting [31]) it was 0.578 µM; in assay [4] (setting [31]), 0.00375 µM; in assay [5] (setting [31]) it was at least 10 µM; in assay [6] (setting [31]) it was 0.00847 µM; in [7] (setting [31]) it was 0.348 µM.
CEEGKLCYLT: the Kd is 14.1 µM in assay [2] (setting [39]); 1.6 µM in [3] (setting [39]); 16.2 µM in [4] (setting [39]); at least 69.5 µM in assay [5] (setting [39]); 13.2 µM in [6] (setting [39]); 8.09 µM in [7] (setting [39]).
For RECYAQRFYL, the Kd in [2] (setting [39]) turned out to be 0.137 µM; in [3] (setting [39]), 1.44 µM; in [4] (setting [39]), 0.25 µM; in assay [5] (setting [39]), 9.58 µM; in assay [6] (setting [39]), 0.525 µM; in assay [7] (setting [39]) it was 0.00555 µM.
On to TTELRTYTI, for which the IC50 in [8] (setting [37]) is 0.925 µM; in assay [9] (setting [37]) it was at least 94.5 µM.
In turn, IIQAFEAGV yielded an IC50 in assay [9] (setting [36]) of 2.47 µM.
For SLEEEYPPW, the IC50 is at least 179 µM in assay [8] (setting [36]) and at least 214 µM in assay [9] (setting [36]).
VPTSRTTWSI: the values for the Kd in assay [14] (setting [40]) and in assay [1] (setting [40]) were 0.0525 µM and 0.0503 µM, respectively.
As for DGQQFYWPV, the IC50 in assay [8] (setting [36]) was 62 µM; in assay [9] (setting [36]), 57.2 µM.
LFTEQAFYT: the half-maximal inhibitory concentration (IC50) is 55 µM in assay [8] (setting [41]) and 68.1 µM in [9] (setting [41]).
Take TPHSGEEHAV: the Kd in assay [1] (setting [40]) stood at 0.162 µM.
For TETKITFAL, the IC50 in assay [8] (setting [38]) was 19 µM; in assay [9] (setting [38]) it was at least 83.3 µM.
In [9] (setting [38]), YVSAGESSI had a half-maximal inhibitory concentration (IC50) of 32.7 µM.
On to QSPPIREAV, for which the IC50 in [9] (setting [37]) was 38.3 µM.
With RLRMDKLQL, the Kd in assay [15] came to 0.175 µM; in assay [1] (setting [40]), 0.149 µM.
As for HALLATSIF, the Kd in [11] (setting [32]) amounted to 0.0168 µM.
On to ELSFEALSL, for which the values for the IC50 in assay [8] (setting [37]) and in [9] (setting [37]) were 39.5 µM and 23.9 µM, respectively.
Regarding AAIGLAWIP, the IC50 in assay [8] (setting [36]) was at least 131 µM; in assay [9] (setting [36]) it was at least 280 µM.
As to EPWLSSKPEF, the Kd amounted to 1.38 µM in assay [11] (setting [30]) and 0.684 µM in assay [12] (setting [30]).
For ELLPAVSSG, the IC50 in [9] (setting [36]) was at least 194 µM.
Turning to SPPEVERAVL, the Kd in assay [1] (setting [32]) came to 0.0197 µM.
As for MPTVIEHLER, the Kd in assay [11] (setting [35]) is 0.871 µM; in assay [12] (setting [35]) it was 7.05 µM.
As for SPIVDRKGKV, the Kd in [1] (setting [40]) was 0.545 µM.
For the sequence KEGAFFLYD, the IC50 was 46 µM in [8] (setting [36]) and at least 3840 µM in [9] (setting [36]).
With GPMPVTHSSA, the Kd in [1] (setting [40]) amounted to 0.00721 µM.
Consider DFIGKTIGF, for which the Kd is 0.186 µM in assay [16]; at least 20 µM in assay [17]; at least 20 µM in assay [18]; at least 20 µM in [19]; at least 20 µM in assay [20]; at least 20 µM in assay [21]. Also, the Kd in [22], in [23], in assay [24], in assay [25], in [26] and in assay [27] was at least 20 µM each time. Also, the Kd in assay [28] and in assay [29] was at least 20 µM throughout.
Regarding TQETITETA, the IC50 in assay [9] (setting [37]) is at least 184 µM.

The values above are taken from the Immune Epitope Database (IEDB).
